Test results reported in publication PMC11806106.

Assays:
[1] = biological target: MOR FRET sensor (rat MOR with sYFP2 inserted after G267, truncated after T370, mTurquoise2 at the C-terminus) (rat) (UniProt P33535)
[2] = biological target: MOR FRET sensor (rat MOR with sYFP2 inserted after G267, truncated after T370, mTurquoise2 at the C-terminus) (rat) (UniProt P33535); remark: listed apart in the source

T370 sequence (P33535 1-370): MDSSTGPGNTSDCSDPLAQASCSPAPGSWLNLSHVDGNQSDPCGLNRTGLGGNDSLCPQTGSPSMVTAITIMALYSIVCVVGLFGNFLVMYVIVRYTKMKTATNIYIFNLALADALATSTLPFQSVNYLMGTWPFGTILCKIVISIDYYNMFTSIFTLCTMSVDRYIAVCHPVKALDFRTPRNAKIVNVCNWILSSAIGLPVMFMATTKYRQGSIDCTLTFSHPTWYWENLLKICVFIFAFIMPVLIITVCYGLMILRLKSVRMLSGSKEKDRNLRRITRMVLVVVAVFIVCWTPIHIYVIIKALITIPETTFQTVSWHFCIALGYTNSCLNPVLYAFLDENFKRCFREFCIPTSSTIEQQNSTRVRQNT

Substance | EC50 of the agonist-induced change of the FRET emission ratio of the MOR FRET conformation sensor (concentration-response, 96-well plate reader) [1] [µM] | half-time of deactivation of the MOR FRET sensor after washout of 100 µM agonist (single-cell FRET) [2] [s] | on-rate Kon, calculated from the Koff of sensor deactivation and the EC50 (single-cell FRET, 100 µM agonist) [2] [M⁻¹ s⁻¹]
DAMGO (peptide) | 0.43 | < 10 | 167000
Met-enkephalin (peptide) | – | < 10 | –
